Data from patent US20160031999A1 (CSL, published 2016).
Changes are numbered by the printed parent chain. Values joined by “and” are separate entries in the source; they are usually repeats but may differ in a detail not shown here. Identical values can stand only once.

T1: polypeptide of SEQ ID NO: 85 (amino acids 23 to 318 of human IL-11Rα, serine at position 248, 8×HIS tag) (human, UniProt Q14626 23-318)
T1 construct: also called WT D1/2; truncated hIL-11R
T1 sequence: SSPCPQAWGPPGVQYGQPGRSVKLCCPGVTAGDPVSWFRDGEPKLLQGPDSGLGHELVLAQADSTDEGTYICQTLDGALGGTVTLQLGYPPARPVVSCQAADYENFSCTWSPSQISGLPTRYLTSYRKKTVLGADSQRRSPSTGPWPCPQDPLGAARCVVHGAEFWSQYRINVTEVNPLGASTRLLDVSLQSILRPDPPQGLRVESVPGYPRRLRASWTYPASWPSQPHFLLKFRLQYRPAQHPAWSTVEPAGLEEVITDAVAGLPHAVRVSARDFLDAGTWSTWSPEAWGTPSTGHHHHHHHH

T2: polypeptide of SEQ ID NO: 3 (amino acids 23 to 363 of human IL-11Rα, serine at position 248, 8×HIS tag) (human, UniProt Q14626 23-363)
T2 construct: also called WT F/L
T2 sequence: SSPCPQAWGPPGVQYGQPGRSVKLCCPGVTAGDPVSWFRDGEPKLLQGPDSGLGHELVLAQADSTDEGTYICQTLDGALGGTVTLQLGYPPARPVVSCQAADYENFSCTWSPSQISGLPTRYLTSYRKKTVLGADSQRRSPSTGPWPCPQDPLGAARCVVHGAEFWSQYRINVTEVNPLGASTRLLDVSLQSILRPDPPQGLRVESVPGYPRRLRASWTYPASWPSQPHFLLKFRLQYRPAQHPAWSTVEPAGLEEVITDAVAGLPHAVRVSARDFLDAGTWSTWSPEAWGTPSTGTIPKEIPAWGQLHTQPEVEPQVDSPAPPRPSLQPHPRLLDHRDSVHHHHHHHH

T3: polypeptide of SEQ ID NO: 88 (human IL-11Rα 23-318 and mouse IL-11Rα 319-367, 8×HIS tag) (human and mouse (chimera))
T3 chain: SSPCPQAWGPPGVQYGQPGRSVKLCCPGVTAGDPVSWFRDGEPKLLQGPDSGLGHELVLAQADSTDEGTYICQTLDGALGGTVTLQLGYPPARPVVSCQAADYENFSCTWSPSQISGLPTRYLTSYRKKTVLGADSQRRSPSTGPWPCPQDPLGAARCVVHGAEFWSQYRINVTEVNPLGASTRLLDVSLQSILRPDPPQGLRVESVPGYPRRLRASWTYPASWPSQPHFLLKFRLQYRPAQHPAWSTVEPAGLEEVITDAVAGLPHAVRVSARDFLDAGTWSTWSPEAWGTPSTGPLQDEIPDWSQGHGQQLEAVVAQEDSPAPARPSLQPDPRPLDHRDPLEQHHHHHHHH

T4: polypeptide of SEQ ID NO: 87 (human IL-11Rα 23-215 and mouse IL-11Rα 216-367, 8×HIS tag) (human and mouse (chimera))
T4 chain: T3 chain with R215H, P225R, S226R, A252I, T284A

B1: antibody 8D10 (antibody, human IgG4 S228P, kappa, V domains shown)
VH: EVQLLESGGGLVQPGGSLRLSCAASGFTFSRYMMGWVRQAPGKGLEWVSSIVPSGGITIYADSVKGRFTISRDNSKNTLYLQMNSLRAEDTAVYYCARDHMGIVATDWGQGTLVTVSS
VL: DIQMTQSPSSLSASVGDRVTITCQASQDITNYLNWYLHKPGKAPKLLIYDASNLQTGVPSRFSGSGSGTDFTFTITSLQPEDFGTYYCQQYDTLHPSFGPGTTVDIKR
B2: antibody 8E4 (antibody, human IgG4 S228P, lambda, V domains shown)
VH: EVQLLESGGGLVQPGGSLRLSCAASGFTFSWYFMGWVRQAPGKGLEWVSYIYPSGGSTGYADSVKGRFTISRDNSKNTLYLQMHSLRAEDTAVYYCARDEGYCSSTSCYFDAFDIWGQGTMVTVSS
VL: QSALTQPPSASGSPGQSVAISCTGTSSDVGGYNFVSWYQQHPGKAPKLLIYEVTKRPSGVPDRFSGSKAGNTASLTVSGLQAEDEADYYCSSYGGSNNAGVFGTGTKVTVLG

Experiments:
[1] = molecular target: T1, polypeptide of SEQ ID NO: 85 (amino …); test: Biacore, antibody captured on anti-human IgG Fc, receptor injected; N = 2, both values shown
Experimental: (§1) Various point mutants of soluble forms of IL-11R were produced in which amino acids from mIL-11 were introduced into a soluble form of hIL-11 (SEQ ID NO: 85) (see Table 5 for positions of mutations relative to SEQ ID NO: 1 and for reference to the SEQ ID NO: of each polypeptide) and the binding of antibodies to those polypeptides or to polypeptides of SEQ ID NO: 3 or SEQ ID NO: 85 was determined using Biacore analysis or FACS.
(§2) Anti human IgG Fc specific antibody was chemically immobilized on a CM5 chip to ˜9000 RU. Antibodies were captured at about 0.3-1 μg/ml for 120 seconds on 2 spots in each flow cell. Adjacent spots consisting of only anti human IgG were used as a reference. IL-11 receptors were injected over the captured antibodies and reference spots at 40, 10, 5 and 2.5 nM in duplicate. Blank injections of buffer only were also performed in duplicate. Injection was performed for 3 minutes and dissociation monitored for a further 5 minutes.

[2] = molecular target: T2, polypeptide of SEQ ID NO: 3 (amino …); test: Biacore, antibody captured on anti-human IgG Fc, receptor injected; mean ± SE, N = 3
Experimental: as §1, §2

[3] = molecular target: T1, polypeptide of SEQ ID NO: 85 (amino …); test: Biacore, antibody captured on anti-human IgG Fc, receptor injected; mean ± SE
Experimental: as §1, §2

[4] = molecular target: T3, polypeptide of SEQ ID NO: 88 (human …); test: Biacore, domain-swapped receptor; strong = KD of about 10 nM or lower
Experimental: (§3) Various soluble forms of IL-11R comprising regions of hIL-11R and mIL-11R were produced and comprise sequences as set forth in SEQ ID NOs: 3 and 86-90 and the binding of antibodies 8E2, 8D10 and 8E4 to those polypeptides was determined using Western blotting or Biacore analysis.
(§4) For Biacore analysis, anti-human was IgG immobilized on the sensor surface at ˜10,000-12,000 RU and each antibody was captured at between 0.2 μg/ml and 0.5 μg/ml every cycle for 120 seconds. IL-11 receptors were injected over captured antibodies at varying concentrations, ranging from 1 μM down to 2.5 nM, including injections of buffer blanks. Association was monitored for 3-5 minutes, dissociation was monitored for 3-10 minutes. Approximate affinities were determined by fitting binding curves of each interaction to a 1:1 Kinetic Model.

[5] = molecular target: T4, polypeptide of SEQ ID NO: 87 (human …); test: as above
Experimental: as §3, §4

Row | Binder | Kd [1] | Kd [2] | Kd [3] | binding result [4] | binding result [5]
1 | B1 | 0.57 nM and 0.69 nM | 1 nM | 0.58 nM | binds | binds
2 | B2 | 3.2 nM and 3.7 nM | 4 nM | 2.78 nM | binds | binds
